Key:
[1] = tested on: pDAB1 (Tyr232); assay: HRECs treated 5 minutes with recombinant mini-RELN, pDAB1 western blot; type: cell-based, human
In short: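 Serum-starved (2 h) HRECs at passage 7 given recombinant mini-RELN constructs or mouse Reelin at 4 ug/mL for 5 min, then lysed. Western blot of 3.5 ug lysate for pDAB1 (Tyr232) with IR detection. Value is pDAB1:total protein band ratio normalized to control.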

[2] = tested on: pDAB1; assay: Trans-nasal (MIND) delivery of mini-RELN in mice, brain pDAB1 western blot; type: in vivo; settings: WT male mice, 72 h post-trans-nasal delivery
From the text: We used a MIND procure (trans nasal delivery using Minimally Invasive Nasal Depot (MIND), Padmakumar et al., J Control Release. 2021 Mar. 10; 331: 176-186) or intraperitoneal injection to administer miniRELN constructs into mice. MIND leverages the olfactory nerve to bypass the blood brain barrier. […] Using the MIND methodology provides one method of reaching the entorhinal cortex with minimal systemic exposure. […] (Jackson Laboratory) were housed under regular light/night cycle. All procedures were conducted under approved IACUC animal protocols. Prior to incision, the nasal region was shaved and cleaned using betadine and 70% alcohol and mouse subcutaneously injected with buprenorphine HCl and meloxicam (5 mg/kg). The nasal cavity was then opened using a scalped and nasal mucosa exposed using a microdrill. Once the mucosa was exposed, gel dispersion of either PBS or mini-RELN constructs (Innovagen) in 20% Pluronic (Sigma Aldrich) was subcutaneously delivered in the surgically-generated pocket. Mice were injected with meloxicam for 3 days prior euthanasia at day 4 to collect the brain tissue used for post-mortem analysis.
Western blotting was performed as follows. 20 ug protein homogenates were prepared under reducing and denaturing conditions using Laemmli buffer enriched with 10 mM DTT and 5 min boiling. Samples were electrophoretically separated in a 4-20% Gel at 90V and protein transferred to a PVDF membrane using iBlot™ 2 Dry Blotting System. The membrane was blocked using Intercept® (TBS) Blocking Buffer for 2 hours. We detected pDAB1 (Tyr232; 1:1000, rabbit, #3325 Cell signaling), and Beta actin (1:5000, mouse, #66009-1-Ig, Proteintech). Antibodies were diluted using Intercept® (TBS) Blocking Buffer and incubated overnight at 4C under gentle shaking. Prior secondary antibody incubation, membranes were washes 2 times using TBS-T for 10 minutes. As secondary antibodies we used IR Dye 800n CW Goat-anti-Rabbit (925-32211, Licor) and IR Dye 680 CW Goat-anti-Mouse (925-68070, Licor) both diluted 1:10000 in blocking buffer for 1 h at room temperature under gentle shaking. Membranes were washed three times with TBS-T prior IR detection using Odyssey imager. To quantify the results, each band was quantified using ImageJ and data expressed as pDAB1:βActin ratio normalized to the control.

[3] = tested on: pTau S396; assay: Intraperitoneal mini-RELN in MAPT P301S Tau Tg mice, pTau S396 immunofluorescence; type: in vivo; settings: 6 months old female MAPT P301S mice, intraperitoneal days 1-4, hippocampal and entorhinal regions, vs PBS
Method: The effects of systemic delivery of mini-RELN peptides was evaluated in vivo. 6 months old female MAPT P301S Tau Tg mice were injected intraperitoneally on day 1 with 500 μL and on day 2-4 with 250 μL solutions of either vehicle (PBS) or mini-RELN peptides. On Day 5, mice were euthanized with saturating concentration CO2 gas and intracardially perfused with 4% PFA. Brains were subsequently harvested and used for histological analyses.
Immunofluorescence staining of murine brains was performed as follows. 24 hours post fixation with 4% PFA at 4° C., sagittal brain sections were obtained at 1 mm thickness using a stainless-steel brain matrix. The entorhinal-hippocampal section of each brain was chosen for Clarity using Binaree® Tissue Clearing™ Kit (HRTC-012) following the kit guidelines. Sections were incubated with pTauS396 primary antibody for 72 h followed by secondary antibody: Alexa 647, and DAPI for 1 h. Subsequently, sections were imaged using confocal SP8 microscope for quantification. Fourteen images were taken at 63× magnification per group. Fluorescence intensity of pTau was quantified automatically using Matlab (2021a). Otsu's thresholding method was used to get a mask of the image signal and then the mean intensity of the signal was computed.

B1: RAP-FcIgG-CTRH3447R (protein)
chain: MYRMQLLSCIALSLALVTNSMAPRRVRSFLRGLPALLLLLLFLGPWPAASHGGKYSREKNQPKPSPKRESGEEFRMEKLNQLWEKAQRLHLPPVRLAELHADLKIQERDELAWKKLKLDGLDEDGEKEARLIRNLNVILAKYGLDGKKDARQVTSNSLSGTQEDGLDDPRLEKLWHKAKTSGKFSGEELDKLWREFLHHKEKVHEYNVLLETLSRTEEIHENVISPSDLSDIKGSVLHSRHTELKEKLRSINQGLDRLRRVSHQGYSTEAEFEEPRVIDLWDLAQSANLTDKELEAFREELKHFEAKIEKHNHYQKQLEIAHEKLRHAESVGDGERVSRSREKHALLEGRTKELGYTVKKHLQDLSGRISRARHNELTGGSGGNSAPLERKSSVECPPCPAPPVAGPSVFLFPPKPKDTLMISRTPEVTCVVVDVSHEDPEVQFNWYVDGVEVHNAKTKPREEQFNSTFRVVSVLTVVHQDWLNGKEYKCKVSNKGLPAPIEKTISKTKGQPREPQVYTLPPSREEMTKNQVSLTCLVKGFYPSDIAVEWESNGQPENNYKTTPPMLDSDGSFFLYSKLTVDKSRWQQGNVFSCSVMHEALHNHYTQKSLSLSPGARTGGGGSGGGGSSTRKQNYMMNFSRQHGLRRFYNRRRRSLRRYP
efficacy at RELN signaling (pDAB1) relative to comparators ([1]; 5 minutes treatment): more effective than controls
pDAB1 levels ([1]; 5 minutes, 4 ug/mL recombinant protein): increased pDAB1 levels
pDAB1 levels in the hippocampus [2]: increased
pDAB1 levels in the midbrain [2]: increased
pTau S396 fluorescence intensity [3]: decreased levels of pTau S396 signaling

From patent US20260139017A1, “COMPOSITIONS AND METHODS USING REELIN IN ALZHEIMER'S DISEASE” (The General Hospital Corporation, priority 2022, published 2026)
